Data published in article PMC7078746, “Processing of the SARS-CoV pp1a/ab nsp7–10 region” (Biochemical Journal, 2020).

T1: SARS-CoV nsp9 (SARS-CoV), P0C6X7
T1 chain: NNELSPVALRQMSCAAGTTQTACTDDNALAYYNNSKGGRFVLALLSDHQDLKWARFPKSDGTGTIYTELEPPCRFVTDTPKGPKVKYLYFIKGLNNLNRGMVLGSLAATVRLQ

B1: SARS-CoV nsp9, P0C6X7 (natural protein)
chain: T1 chain
B2: SARS-CoV main protease M^pro with authentic ends (enzyme)
chain: SGFRKMAFPSGKVEGCMVQVTCGTTTLNGLWLDDTVYCPRHVICTAEDMLNPNYEDLLIRKSNHSFLVQAGNVQLRVIGHSMQNCLLRLKVDTSNPKTPKYKFVRIQPGQTFSVLACYNGSPSGVYQCAMRPNHTIKGSFLNGSCGSVGFNIDYDCVSFCYMHHMELPTGVHAGTDLEGKFYGPFVDRQTAQAAGTDTTITLNVLAWLYAAVINGDRWFLNRFTTTLNDFNLVAMKYNYEPLTQDHVDILGPLSAQTGIAVLDMCAALKELLQNGMNGRTILGSTILEDEFTPFDVVRQCSGVTFQ
notes: also called 3CL^pro; nsp5

Columns and labels:
[1] = target: T1, SARS-CoV nsp9 (SARS-CoV), P0C6X7; assay: native MS; details: remark: other sources report otherwise
native MS = target: the molecule itself; assay: native MS

Binder | mass fraction of dimers [1] [%] | mass fraction of monomers [1] [%] | stoichiometry N [1] | stoichiometry N (native MS)
B1 | 25 | 75 | 2 | 
B2 |  |  |  | 2
